The source of these data is publication PMC4840014, “The G-quadruplex-forming aptamer AS1411 potently inhibits HIV-1 attachment to the host cell”.

Data set [1] addresses gp120 envelope glycoprotein (HIV-1 IIIB, UniProt P04578 33-511). Description: SPR; HEPES-KCl; up to 1000 nM; SPR (Biacore T100, CM5 chip), HEPES-KCl buffer (composition, pH and temperature not given), oligos 15.6-1000 nM, heated 95 C 5 min and cooled to room temperature, 20 uL/min, 120 s contact and dissociation, 1 M KCl regeneration. The following applies: protein: recombinant.

The target in another data set is nucleolin (NCL) (human (human recombinant protein), UniProt P19338 1-710). In words: SPR; HEPES-KCl; SPR (Biacore T100, CM5 chip), HEPES-KCl buffer (composition, pH and temperature not given), oligos 15.6-1000 nM, heated 95 C 5 min and cooled to room temperature, 20 uL/min, 120 s contact and dissociation, 1 M KCl regeneration.
Chain of nucleolin (NCL) (P19338 whole entry): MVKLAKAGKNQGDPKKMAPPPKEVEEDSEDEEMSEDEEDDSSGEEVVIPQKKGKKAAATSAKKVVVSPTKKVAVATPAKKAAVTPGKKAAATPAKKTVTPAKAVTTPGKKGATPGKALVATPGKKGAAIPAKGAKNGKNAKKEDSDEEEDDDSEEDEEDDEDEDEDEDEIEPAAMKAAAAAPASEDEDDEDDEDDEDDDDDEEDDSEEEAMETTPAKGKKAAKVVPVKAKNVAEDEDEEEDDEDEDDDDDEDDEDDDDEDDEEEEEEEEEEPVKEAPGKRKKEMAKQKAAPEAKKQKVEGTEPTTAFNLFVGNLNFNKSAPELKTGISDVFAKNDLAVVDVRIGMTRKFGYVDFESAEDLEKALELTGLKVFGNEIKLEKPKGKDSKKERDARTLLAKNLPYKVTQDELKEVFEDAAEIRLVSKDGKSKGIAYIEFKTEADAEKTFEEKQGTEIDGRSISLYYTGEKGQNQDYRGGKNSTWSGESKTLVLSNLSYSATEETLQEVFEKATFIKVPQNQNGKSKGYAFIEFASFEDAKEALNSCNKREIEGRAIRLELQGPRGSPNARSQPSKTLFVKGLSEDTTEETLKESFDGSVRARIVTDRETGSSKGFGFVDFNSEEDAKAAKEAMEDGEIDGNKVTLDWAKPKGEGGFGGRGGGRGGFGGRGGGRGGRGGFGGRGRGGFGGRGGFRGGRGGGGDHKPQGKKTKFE

B1: CRO26 (ssDNA)
DNA: CCTCCTCCTCCTTCTCCTCCTCCTCC
As to B1, the binding result in data set [1] (C-rich, negative control) was “no binding”.

B2: SCRA (ssDNA)
DNA: TTTTTGGAGCGTGTGTGCGCGAGAGCGTGCGCGTGGCGAGCGTGGAGTGGTTTTT
For the molecule B2, the binding result in data set [1] (G-rich, non-G4) was “no binding”.

B3: AS1411 (structured_DNA)
DNA: GGTGGTGGTGGTTGTGGTGGTGGTGG
Consider B3, for which the Kd with nucleolin (NCL) (G4, described as dimeric) was determined as 34.2 nM.

B4: LTR-III (structured_DNA)
DNA: GGGAGGCGTGGCCTGGGCGGGACTGGGG
For B4, in the data set with nucleolin (NCL) (G4), the Kd was found to be 76.3 nM.
